Results published in US9296994B2, “Archease as RNA ligaes complex member” (IMBA—INSTITUT FÜR MOLEKULARE BIOTECHNOLOGIE GMBH, priority 2012, dated 2016).

Tests used:
[1] = biological target: T1, human tRNA ligase complex (Homo sapiens, UniProt Q9Y3I0); test: RNA ligation assay with affinity-purified tRNA ligase complex and added recombinant Archease; format: biochemical; details: pre-cleaved tRNA substrates or linear intron, time course
T1 construct: FLAG; made in house; Archease expressed in E. coli
Procedure: FIG. 3: Archease boosts RNA ligation by the human tRNA ligase complex. A) Time-course ligation assay with affinity-purified tRNA ligase complex and pre-cleaved tRNA substrates in absence or presence of recombinant Archease. B) Time course ligation assay with affinity purified tRNA ligase complex and isolated linear introns (2.5 μM) in absence or presence of recombinant Archease (8.5 μM) expressed in E. coli. The signals corresponding to the concatemerized intron were quantified and plotted as fraction of the total signal detectable in the respective lane.
FIG. 6: The point mutations D39A and K144A abolish the function of Archease in RNA ligation. A) Time-course of ligation activity of FLAG-HSPC117 complexes upon addition of recombinant wild-type or mutant Archease (15 μM). B) SDS-PAGE analysis of purified recombinant wild-type and mutant Archease.
Addition of Archaease influences ligase activity of affinity purified human tRNA ligase complexes.
To study the function of Archease the available NMR structure from the euryarchaeote Methanothermobacter thermautotrophicus (Yee et al., 2002) (36% identical to human protein) was used and aspartic acid (D) 39 and lysine (K) 144, both extremely conserved residues, were replaced by alanines (D39A; K144A) (FIG. 5). Wild-type and mutant versions of Archease were over-expressed in […] and tRNA ligase activity was measured. […] FIG. 6B confirms equal concentrations of recombinant proteins added to the reactions.

[2] = biological target: T2, FLAG-RTCB, the catalytic subunit of the human tRNA ligase (Homo sapiens, UniProt Q9Y3I0); test: Assay to monitor Archease function and inhibition of RNA ligase activity (linear intron substrate); format: biochemical; details: FLAG-RTCB from HEK293 cells with His-tagged Archease, GTP or GMPcPP at 0.5 mM
T2 construct: FLAG; made in house; host or cells: HEK293 cells (FLAG-RTCB)
Procedure: FIG. 14: Assay to monitor inhibition of RNA ligase activity. […] The linear substrate (second from bottom to top) is converted into a circular product (bottom) or a concatemer (top), which is further circularized (third from bottom to top). Ligation only took place with wild-type Archease and GTP.
The RNA ligation activity of FLAG-RTCB, the catalytic subunit of the human tRNA ligase, was determined in the presence of wildtype or mutant (D39A) Archease with the addition of GTP or non-hydrolysable GMPcPP (5′-guanylylmethylenebisphosphonate). […] The reaction was carried out with FLAG-RTCB purified from HEK293 cells and hexahistidine tagged wild-type or mutant Archease. Furthermore, GTP or GMPcPP were used at 0.5 mM concentration. A linear intron derived from a radioactively labelled pre-tRNA that was transcribed with T7 polymerase and cleaved with recombinant tRNA endonuclease from Methanocaldococcus jannaschii served as substrate. Cleavage products were resolved on preparative denaturing polyacrylamide gels and the linear intron was eluted overnight and recovered by precipitation. With reference to FIG. 14, FLAG-RTCB and wild-type Archease in the presence of GTP are able to convert the linear substrate (second from bottom to top) into a circular product (bottom) or a concatemer (top), which is further circularized (third from bottom to top). This type of assay can be used to validate candidate inhibitors of the Archease or even the ligase or to screen compound libraries in order to find inhibitory molecules.

T1 sequence (Q9Y3I0 whole entry): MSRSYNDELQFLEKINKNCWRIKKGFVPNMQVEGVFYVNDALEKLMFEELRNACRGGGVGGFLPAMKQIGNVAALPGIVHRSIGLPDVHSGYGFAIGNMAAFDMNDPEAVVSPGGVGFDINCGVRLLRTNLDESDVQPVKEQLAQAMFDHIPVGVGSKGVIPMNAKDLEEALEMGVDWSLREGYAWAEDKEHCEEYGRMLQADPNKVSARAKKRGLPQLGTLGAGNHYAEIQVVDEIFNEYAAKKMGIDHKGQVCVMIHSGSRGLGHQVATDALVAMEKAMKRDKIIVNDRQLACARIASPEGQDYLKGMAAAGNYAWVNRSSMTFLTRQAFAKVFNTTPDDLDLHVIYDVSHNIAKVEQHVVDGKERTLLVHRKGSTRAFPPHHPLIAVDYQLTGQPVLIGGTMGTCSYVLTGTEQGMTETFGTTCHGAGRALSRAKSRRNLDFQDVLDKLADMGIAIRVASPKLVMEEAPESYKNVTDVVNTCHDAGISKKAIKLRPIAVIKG
T1 sequence (Q92499 whole entry partner): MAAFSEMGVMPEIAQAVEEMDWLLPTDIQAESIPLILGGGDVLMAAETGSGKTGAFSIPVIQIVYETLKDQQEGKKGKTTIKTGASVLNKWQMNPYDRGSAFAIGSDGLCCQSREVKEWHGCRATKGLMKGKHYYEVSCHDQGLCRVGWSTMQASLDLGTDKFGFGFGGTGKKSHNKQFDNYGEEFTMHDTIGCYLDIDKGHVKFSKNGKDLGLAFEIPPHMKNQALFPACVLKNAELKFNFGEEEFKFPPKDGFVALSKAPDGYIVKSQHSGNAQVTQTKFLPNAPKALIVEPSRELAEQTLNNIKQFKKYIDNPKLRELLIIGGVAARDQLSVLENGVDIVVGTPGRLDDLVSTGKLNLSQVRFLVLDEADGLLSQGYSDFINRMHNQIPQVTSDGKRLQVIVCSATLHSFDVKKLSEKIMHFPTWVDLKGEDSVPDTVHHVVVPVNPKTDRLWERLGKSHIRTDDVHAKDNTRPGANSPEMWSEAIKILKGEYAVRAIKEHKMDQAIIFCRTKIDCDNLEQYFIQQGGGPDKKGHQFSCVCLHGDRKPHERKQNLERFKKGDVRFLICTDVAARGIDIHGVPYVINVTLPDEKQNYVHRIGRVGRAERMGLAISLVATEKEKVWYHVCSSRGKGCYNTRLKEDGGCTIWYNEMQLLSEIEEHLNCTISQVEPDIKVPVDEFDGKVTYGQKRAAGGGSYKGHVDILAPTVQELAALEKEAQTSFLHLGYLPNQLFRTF
T1 sequence (Q52LJ0 whole entry partner): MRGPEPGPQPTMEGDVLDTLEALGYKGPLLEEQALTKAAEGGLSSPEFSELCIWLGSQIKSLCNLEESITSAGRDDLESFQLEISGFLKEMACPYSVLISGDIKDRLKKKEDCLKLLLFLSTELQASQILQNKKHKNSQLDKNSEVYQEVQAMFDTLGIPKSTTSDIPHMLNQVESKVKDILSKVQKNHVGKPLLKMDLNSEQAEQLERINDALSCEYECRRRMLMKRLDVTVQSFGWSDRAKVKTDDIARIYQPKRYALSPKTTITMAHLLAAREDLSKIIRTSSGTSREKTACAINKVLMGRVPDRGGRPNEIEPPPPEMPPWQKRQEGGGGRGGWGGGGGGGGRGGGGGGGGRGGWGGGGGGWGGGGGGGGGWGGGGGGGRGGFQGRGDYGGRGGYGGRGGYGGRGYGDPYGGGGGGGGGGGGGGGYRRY
T1 sequence (Q9BVC5 whole entry partner): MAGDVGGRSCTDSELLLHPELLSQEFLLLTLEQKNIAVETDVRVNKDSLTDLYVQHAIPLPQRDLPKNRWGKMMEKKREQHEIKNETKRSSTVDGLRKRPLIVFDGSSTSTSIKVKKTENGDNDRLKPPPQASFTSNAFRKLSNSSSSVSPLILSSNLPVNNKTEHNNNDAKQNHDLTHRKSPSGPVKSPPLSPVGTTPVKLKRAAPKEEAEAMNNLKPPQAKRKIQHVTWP
T1 sequence (Q9Y224 whole entry partner): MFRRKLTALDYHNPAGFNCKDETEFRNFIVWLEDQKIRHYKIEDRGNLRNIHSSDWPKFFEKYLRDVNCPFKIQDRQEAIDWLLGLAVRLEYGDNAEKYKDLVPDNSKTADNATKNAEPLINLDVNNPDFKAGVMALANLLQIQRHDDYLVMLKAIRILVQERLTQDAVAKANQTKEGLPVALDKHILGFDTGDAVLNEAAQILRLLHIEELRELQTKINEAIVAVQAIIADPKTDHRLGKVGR
T2 sequence (Q9Y3I0 whole entry): as the sequence (Q9Y3I0 whole entry) above
T2 sequence (Q92499 whole entry partner): as the sequence (Q92499 whole entry partner) above
T2 sequence (Q52LJ0 whole entry partner): as the sequence (Q52LJ0 whole entry partner) above
T2 sequence (Q9BVC5 whole entry partner): as the sequence (Q9BVC5 whole entry partner) above
T2 sequence (Q9Y224 whole entry partner): as the sequence (Q9Y224 whole entry partner) above

B1: wild-type Archease: Homo sapiens Archease protein (SEQ ID NO: 28), recombinant, enhances RNA ligase activity of HSPC117 (protein, listed as Homo sapiens)
chain: MAQEEEDVRDYNLTEEQKAIKAKYPPVNRKYEYLDHTADVQLHAWGDTLEEAFEQCAMAMFGYMTDTGTVEPLQTVEVETQGDDLQSLLFHFLDEWLYKFSADEFFIPREVKVLSIDQRNFKLRSIGWGEEFSLSKHPQGTEVKAITYSAMQVYNEENPEVFVIIDI
For B1, the “RNA ligase activity of affinity purified tRNA ligase complex upon addition of recombinant Archease” value [1] was “led to an increase in RNA ligase activity”, the “RNA ligase activity of affinity purified tRNA ligase complex upon addition of recombinant Archease” value ([1]; listed as recombinant Archease) was “boosts ligation activity to a great extent” and the “RNA ligation activity of FLAG-RTCB” value [2] was “Ligation only takes place with wild-type Archease”.
